Key:
[1] = test system: HSV-2 MS; test: Post-HSV entry combination (synergy) assay, combination index; assay type: cell-based; details: 0.5 ug/mL
Experimental: Results obtained in the double curve assay were then analysed in silico in a ComboSyn analysis (CompuSyn for Drug Combinations and for General Dose-Effect Analysis by Ting-Chao Chou Memorial Sloan-Keltering Cancer Center New York, N.Y. and Nick Martin Massachustts Institute of Technology Cambridge, Mass.) to evaluate the potential synergies between IgGA and ACV, through the calculation of Combination Index (CI) and Dose Reduction Index (DRI).
The combination index (CI) according to Chou 2006 (23) indicates nearly additive activity in the range of 0.9-1.1, synergism under 0.9, strong synergism between 0.1 and 0.3 and very strong synergism under 0.1. Values of CI over 1.1 indicate antagonism. […]
The first step in IgGA/FOS combination activity evaluation has been the assessment of drug susceptibility for the two chosen HSV isolates already used for the Example 2. […] Combination index was calculated as in Example 2 to assess the synergism between IgGA and FOS. […]
The first step in IgGA/PCV combination activity evaluation has been the assessment of drug susceptibility for the two chosen HSV isolates (HSV-1 LV and HSV-2 MS). […] Combination index was calculated as in Example 2 to assess the synergism between IgGA and PCV. […]

[2] = test system: HSV infected cells; test: IIF binding assay of ScFv A; details: ScFv format
Experimental: ScFv gene of IgGA was successfully constructed and cloned into expression vector. ScFv format small scale production of IgGA was performed. The binding activity of ScFv A was evaluated by IIF assays on HSV infected cells.

[3] = test system: HSV-2; test: Post adsorption inhibition of infection (plaque count); assay type: cell-based; details: IgG 100 ug/mL added 30 minutes after infection; 48 h; VERO E6
Experimental: (§1) Post-adsorption assays have been developed in order to speculate on possible administration of IgGA for the treatment of HSV infection, after the beginning of virus active replication within the host.
(§2) The first step of experimental approaches, involving post-HSV adsorption evaluation of FabA or IgGA, is the infection of VERO E6 cells with a standard amount of HSV not previously treated with the FabA or IgGA.
(§3) FabA or IgGA is added to the infected cells only after 30 minutes from virus infection. The infection is then carried out for 48 h in order to appreciate the HSV lysis plaques on VERO E6 cells. The experimental results have been evaluated by counting the plaques for infected cells receiving (post-HSV infection) FabA or IgGA compared to virus experimental positive control.
(§4) Fabs tested in post-adsorption assays have been used at a concentration of 50 and 200 ug/mL against HSV-1 and HSV-2 tested isolates respectively*.
(§5) IgGs tested in post-adsorption assays have been used at a concentration of 25 and 100 ug/mL against HSV-1 and HSV-2 tested isolates respectively*.

[4] = test system: HSV-1; test: as above; assay type: cell-based; details: IgG 25 ug/mL added 30 minutes after infection; 48 h; VERO E6
Experimental: as §1, §2, §3, §4, §5

[5] = test system: HSV-2; test: Cell-to-cell infection inhibition (plaque areas, post-adsorption); assay type: cell-based; details: Fabs 200 ug/mL, IgGs 100 ug/mL
Experimental: (§6) Post post-adsorption assays have been performed in order to evaluate the contribution of IgGA in inhibiting “cell-to-cell” infection by measuring the plaque areas resulting from infected cells treated or untreated with FabA or IgGA.
(§7) Fabs tested in post-adsorption cell-to-cell infection inhibition assays have also been preliminary used at a concentration of 50 and 200 ug/mL against HSV-1 and HSV-2 tested isolates respectively*.
(§8) IgGs tested in post-adsorption “cell-to-cell” infection inhibition assays have also been preliminary used at a concentration of 25 and 100 ug/mL against HSV-1 and HSV-2 tested isolates respectively*.

[6] = test system: HSV-1; test: as above; assay type: cell-based; details: Fabs 50 ug/mL, IgGs 25 ug/mL
Experimental: as §6, §7, §8

[7] = test system: HSV-1 HF strain; test: Emergence of escape mutants under selective pressure; assay type: cell-based; details: selective pressure at 5 and 10 ug/mL; sequential infection rounds
From the text: In order to evaluate the presence of escape virus mutants generated under selective pressure of IgGA, HSV-1 infected VERO-E6 cells have been treated with increasing concentrations of Fab A. More in details, VERO cells have been cultured in T25 flasks in the experimental conditions extensively described in the previous reports (“virus propagation techniques”). Cell monolayers have been then infected by HSV-1 HF strain using 50 pfu/mL of cell free virus. […] […] After three days the infected cell media have been collected and centrifuged in order to use medium centrifuged supernatants for new cell infection rounds. […] Five sequential identical infection rounds have been performed in the presence of the two concentrations of IgGA and control IgG above described. […] In order to test the capability of virus cultured in the constant presence of IgGA to escape from IgGA inhibitory activity the cell free supernatants belonging to the final infections in the presence of IgGA have been incubated 1 h at 37° C. in the presence of high IgGA concentration. After pre-incubation the neutralization mix has been used to infect new VERO-E6 cells.
VERO-E6 monolayers were infected with HSV-1 HF strain using 50 pfu/mL of cell free virus. After virus complete adsorption, the infected cells were treated for three days with subinhibitory concentrations of IgGA, namely 0.2 mg/ml and 1 mg/ml. […]

[8] = test system: HSV-2 tested isolates; test: Neutralising activity against clinical isolates (pre-incubation with virus); assay type: cell-based; details: isolates with different susceptibility to Acyclovir; pre-incubation 1 h at 37° C.
Experimental: (§9) The neutralising activity of FabA or IgGA was evaluated by pre-incubating (1 h at 37° C.) the IgGA with the virus and adding the IgGA/virus-mixture to cell monolayer.

[9] = test system: HSV-1 tested isolates; test: as above; assay type: cell-based; details: isolates with different susceptibility to Acyclovir; pre-incubation 1 h at 37° C.
Experimental: as §9

`O=C(O)P(=O)(O)O` [FOS, Foscarnet] was tested. Which “activity of FOS alone against HSV-2” value [1] did it give?
Its value is “nearly ineffective”.

B1: ScFv A: single chain antibody from VL and VH of Fab A with (Gly3Ser)3 linker and His tag (protein)
scFv: ELTQSPGTLSSSPGHRATLSCKASAPLGSNHMAWYQQKPGQAPRLLIYGASTRATGVPARFTGSGSGTDFTLTISSLQPEDFATYYCQQANSFPRTFGQGTKVEIKGGGSGGGSGGGSLESGGGVVQPGRSLRLSCAASGFTFTTFAMHWVRQAPGKGLEWLAFISYDGSNKYYADSVKGRFTISRDNSKNTLYLQMNSLRAEDTSIYYCAREVWNYADYWGQGALVTVSS
modifications: left off: small tags and cut ends
notes: single chain antibody from VL and VH of Fab A with (Gly3Ser)3 linker and His tag
With B1 as the molecule, how does the “IIF signal and binding level” value [2] read?
Its value is “high IIF background signal and low binding”.

What about the “recognition of HSV infected cells in IIF” value [2] of the same molecule?
Its value is “able to recognize HSV infected cells”.

B2: IgGA: IgG1 Fab Ex2 converted into a full IgG1, identified as IgGA (antibody, V domains shown)
VH: LESGGGVVQPGRSLRLSCAASGFTFTTFAMHWVRQAPGKGLEWLAFISYDGSNKYYADSVKGRFTISRDNSKNTLYLQMNSLRAEDTSIYYCAREVWNYADYWGQGALVTVSS
VL: ELTQSPGTLSSSPGHRATLSCKASAPLGSNHMAWYQQKPGQAPRLLIYGASTRATGVPARFTGSGSGTDFTLTISSLQPEDFATYYCQQANSFPRTFGQGTKVEIK
What does the source list for B2?
post-adsorption inhibition of new infection events and infectious foci (plaques), HSV-2 [3]: strongly inhibits; post-adsorption inhibition of new infection events and infectious foci (plaques), HSV-1 [4]: strongly inhibits; inhibition of plaque areas (cell-to-cell infection), HSV-2 [5]: even higher than Fab A inhibition activity; inhibition of plaque areas (cell-to-cell infection), HSV-1 [6]: even higher than Fab A inhibition activity; generation of escape mutants under selective pressure [7]: no “escape mutants” have been generated; generation of escape mutants under selective pressure (Example 1) [7]: no “escape mutants” were generated; neutralisation of HSV-2 isolates [8]: potently neutralises; neutralisation of HSV-1 isolates [9]: potently neutralises

From patent US10899824B2 (Polichem S.A., priority 2016, dated 2021)
